Test results: PMC10397247

T1: O6-bA
T1 chain: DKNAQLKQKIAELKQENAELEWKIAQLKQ

T2: O8-bA
T2 chain: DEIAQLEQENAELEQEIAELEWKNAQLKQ

T3: O3-bA
T3 chain: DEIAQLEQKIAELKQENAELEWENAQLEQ

T4: O9-bA
T4 chain: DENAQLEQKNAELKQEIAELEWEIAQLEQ

T5: O4-bA
T5 chain: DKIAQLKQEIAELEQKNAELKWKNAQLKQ

T6: O5-bA
T6 chain: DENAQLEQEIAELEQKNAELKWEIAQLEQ

T7: O7-bA
T7 chain: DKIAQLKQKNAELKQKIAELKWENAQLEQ

T8: P9bHq
T8 chain: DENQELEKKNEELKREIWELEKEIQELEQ

T9: P8bHq
T9 chain: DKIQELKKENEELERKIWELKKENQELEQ


Assays:
Assay in all cases: two-hybrid library CCNG1;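 further: natural log of median RNA to DNA barcode read ratio; higher means stronger binding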
[1] = biological target: T1, O6-bA
[2] = biological target: T2, O8-bA
[3] = biological target: T3, O3-bA
[4] = biological target: T4, O9-bA
[5] = biological target: T5, O4-bA
[6] = biological target: T6, O5-bA
[7] = biological target: T7, O7-bA
[8] = biological target: T8, P9bHq
[9] = biological target: T9, P8bHq

interaction score [1] | interaction score [2] | interaction score [3] | interaction score [4] | interaction score [5] | interaction score [6] | interaction score [7] | interaction score [8] | interaction score [9] | Binder
-0.618 | -1.12 | -0.685 | -0.712 | 2.34 | -0.75 | -0.831 |  |  | DEIAQLEQKIAELKQENAELEWENAQLEQ [O3-bA]
 |  |  |  |  |  |  | -1.36 | -0.229 | DKIQELKKENEELERKIWELKKENQELEQ [P8bHq]
